Measured values published in PMC7265302 (Nature Communications, 2020).

B1: MvcA, wild type (enzyme)
chain: MIVRGINMTKIKLESPGFMVHKKLKSMSQSYGVMMTGVPAEVLGQMQAERSIPSINKTGNLKQQIAKEVSKVCHMMTEPTQSCGQASNDVCELLLGKIEAEKFHFTKYEALSADGDNLKNVLENTAPSSTNLLIRFEIDREDPPIVLVKTKNENFNPETAVKNKIYLLENKLYFIDKMGNLFNLGPGKKKCTQLFNAIGDSAEYSLCDPFVLEEPEKPEDFAISEIVDIFNEQKERFDFWIGSHSFTIYIPQTLGESPRQFYPYQAYFGSHTLQDWFVSDKDEYLSRIGIDKYIEKLAVLGKTTNTKERSDIYAEFFSKRGREAFFCAHLNEKRQPLRVKFKITEINPELALKNLQETQEFIDTHPGENPSDKVENYRNRAKLAMTEHLESLLDIKPESSPSLFWKNVDKKEQEMTDSSRYKKGPS
B2: MvcA (aa 1–400) (enzyme)
chain: MIVRGINMTKIKLESPGFMVHKKLKSMSQSYGVMMTGVPAEVLGQMQAERSIPSINKTGNLKQQIAKEVSKVCHMMTEPTQSCGQASNDVCELLLGKIEAEKFHFTKYEALSADGDNLKNVLENTAPSSTNLLIRFEIDREDPPIVLVKTKNENFNPETAVKNKIYLLENKLYFIDKMGNLFNLGPGKKKCTQLFNAIGDSAEYSLCDPFVLEEPEKPEDFAISEIVDIFNEQKERFDFWIGSHSFTIYIPQTLGESPRQFYPYQAYFGSHTLQDWFVSDKDEYLSRIGIDKYIEKLAVLGKTTNTKERSDIYAEFFSKRGREAFFCAHLNEKRQPLRVKFKITEINPELALKNLQETQEFIDTHPGENPSDKVENYRNRAKLAMTEHLESLLDIKPESS

Columns and labels:
[1] = biological target: Lpg2149, wild type (Legionella pneumophila, UniProt Q5ZTL2 1-119); experiment: ITC; details: both partners purified
[2] = biological target: Lpg2149 (aa 9–119) (Legionella pneumophila, UniProt Q5ZTL2 9-119); experiment: crystal structure; details: both partners purified

Row | Binder | Kd [1] | binding result [2]
1 | B1 | ~28.1 nM | 
2 | B2 |  | binds
